# According to PMC10979056 (Heliyon, 2024):
# Legend:
# [1] = biological target: human TIM-3-His (human, UniProt Q8TDQ0); assay: ELISA
# [2] = biological target: cynomolgus TIM-3-hFc (Macaca fascicularis, UniProt A0A2K5U3G7); assay: BLI
binder,measurement,setting,value
"MsT229 (antibody, V domains shown) VH: EIQLVQSGPELVKPGASMKMSCKASGYSFTGYTMNWVKQSHGQNLEWIGLINPQTGGTSYNQNFRGKATLTVDKSSNTAYMELLSLTSEDSAVYYCARERGFDSPGFPYWGQGTLVTVSA VL: DIQMTQTTSSLSASLGDRVTISCRASQDISNYLNWYQQKPDGTVKLLIYYTSRLHSGVPSRFSGSGSGTDYSLTISNLEQEDIATYFCQQGNTLPLTFGAGTKLELK",sensitivity (lowest detectable concentration of coated TIM-3-His),[1],10 ng/mL
same,Kd,[2],0.0179 nM
"MsT229-Bio (antibody, V domains shown) VH: EIQLVQSGPELVKPGASMKMSCKASGYSFTGYTMNWVKQSHGQNLEWIGLINPQTGGTSYNQNFRGKATLTVDKSSNTAYMELLSLTSEDSAVYYCARERGFDSPGFPYWGQGTLVTVSA VL: DIQMTQTTSSLSASLGDRVTISCRASQDISNYLNWYQQKPDGTVKLLIYYTSRLHSGVPSRFSGSGSGTDYSLTISNLEQEDIATYFCQQGNTLPLTFGAGTKLELK",sensitivity (lowest detectable concentration of coated TIM-3-His),[1],1 ng/mL
"MsT286 (antibody, V domains shown) VH: QVQLQQSGPELVKPGASMKMSCKASGYSFTGYTMNWVKQSHGQNLEWIGLINPQTGGTSYNQNFRGKATLTVDKSSNTAYMELLSLTSEDSAVYYCARERGFDSPGFPYWGQGTLVTVSA VL: not shown",sensitivity (lowest detectable concentration of coated TIM-3-His),[1],1 ng/mL
same,Kd,[2],0.914 nM
"MsT001 (antibody, V domains shown) VH: EVQLQQSGAEVVMPGASVKMSCKTSGYTFTDYLIHWVKQRPGQGLVWIGAIDTSDSYASYNQKFKGKATLTLDESSRTAYMQLSSLTSEDSAVYFCTGEGLDYWGQGTSVTVSS VL: DIQMTQTPLSLPVSLGDQASISCRSSQSLVHSNGNTYLNWYLQKPGQSPKLLIYKVSYRFSGVPDRFSGSGSGTDFTLKISRVEAEDLGVYFCSQSTHVPPLTFGAGTKLELK",sensitivity (lowest detectable concentration of coated TIM-3-His),[1],1 ng/mL
